21 sequences from the DeepSol protein solubility set can be followed below.

This series can be described thus: soluble on expression in E. coli; label from the status in PepcDB or PDB records.
On to “MVIHIPVRESNYIEKILLPVMVYFIVNVKQNEWIYTILKEKFFYEEQEECHQILHMAHEILKGRRKGVAQDLTRNAFESYIKSSLNNWLCDPLSFSFSSYIRFRLRTYREMVAKLAEVAIDEYKMEQEYQMFIETLRQQVSSRKSRLSCVHLIFDESFIFYDDKGRRLKQEKLVQYIDEELLKQNDVYIDTKVIAPLLSISPKKIYLYTKEQDHNMIITLRNVFQERVQLHGLHDFERNVKNLKNKGNALDFLSFLEHHHHHH”, for which the “soluble on expression in E. coli” value was “soluble”.

Regarding “MPGKRRFRRSPVKYDFFTRLLQTGFLSTDSLLYPESQFHICTQLSSQDAYADNLEHHHHHH”, the “soluble on expression in E. coli” value is “not soluble”.

Take “GPGSMRRANEVAREMWAPSTWERRMSLAGQFTTFCCTHERPIKEESCAAFLMAIEVAPSTRPQYARMLRSMLEMDRTPLDMMIVGLQKKIAARSETKQARLLTKEEMNQLIRSRTDWKERVVLRLAWITASCWSEIEALIPNNFTLERDGALILDWSLAPKTARADPHRASRFVRIRGLDAFDTIKLCRTLQHSEKLTNITNAQVERALVPWNATAHSIKRGALRRAAQIVEAYNFNPHVISQLAMHVDPFDLPQNTVRYLGKHTTLLTQVSSLVAFL”: the “soluble on expression in E. coli” value is given as “not soluble”.

With “MGHHHHHHSHMHDSANCELPLLTPCSKAVMSQALKATFSGFKKEQRRLGIPKNPWLWSEQQVCQWLLWATNEFSLVNVNLQRFGMNGQMLCNLGKERFLELAPDFVGDILWEHLEQMIKENQEKTE”, the “soluble on expression in E. coli” value was “not soluble”.

Take “MAEEKVKDEAMQIMGMFQILPRLVVFDLDYTLWPFYCECRSKREMPSMYPQAKGILSALKEKGIEMAIASRSPTSDIANTFLDKLNIKPMFVAKVSKMGVTSILVGDGVTLGAFRQGLTEFTQNHNSIEKNKQVWRDKYSGKPTSSETDKD”: the “soluble on expression in E. coli” value is on record as “soluble”.

Take “GMEQHQVWAYQTKTHSVTLNSVDIPALAADDILVQNQAIGINPVDWKFIKANPINWSNGHVPGVDGAGVIVKVGAKVDSKMLGRRVAYHTSLKRHGSFAEFTVLNTDRVMTLPDNLSFERAAALPCPLLTAWQAFEKIPLTKQREVLIVGFGAVNNLLTQMLNNAGYVVDLVSASLSQALAAKRGVRHLYREPSQVTQKYFAIFDAVNSQNAAALVPSLKANGHIICIQDRIPAPIDPAFTRTISYHEIALGALHDFGDRQDWQILMQQGEALLTLIAQGKMEIAAPDIFRFEQMIEALDHSEQTKLKTVLTLNE”: the “soluble on expression in E. coli” value is reported as “soluble”.

Turning to “KLLAITSCPNGIAHTYMAAENLQKAADRLGVSIKVETQGGIGVENKLTEEEIREADAIIIAADRSVNKDRFIGKKLLSVGVQDGIRKPEELIQKALNGDIPVY”, the “soluble on expression in E. coli” value is reported as “soluble”.

On to “MVIGVPKEIKTLENRVALTPGGVESLVRRGHTVLVERGAGEGSGLSDAEYARAGAELVGREEAWGAEMVVKVKEPLPEEYGFLREGLILFTYLHLAADRGLTEAMLRSGVTGIAYETVQLPDGTLPLLVPMSEVAGRMAPQVGAQFLEKPKGGRGVLLGGVPGVAPASVVILGGGTVGTNAAKIALGMGAQVTILDVNHKRLQYLDDVFGGRVITLTATEANIKKSVQHADLLIGAVLVPGAKAPKLVTRDMLSLMKEGAVIVDVAVDQGGCVETIRPTTHAEPTYVVDGVVHYGVANMPGAVPRTSTFALTNQTLPYVLKLAEKGLDALLEDAALLKGLNTHKGRLTHPGVAEAFGLPYTPPEEALRG”, for which the “soluble on expression in E. coli” value is listed as “soluble”.

Turning to “GMNNSLAFNHDTLPQKVMFGYGKSSAFLKQEVERRGSAKVMVIAGEREMSIAHKVASEIEVAIWHDEVVMHVPIEVAERARAVATDNEIDLLVCVGGGSTIGLAKAIAMTTALPIVAIPTTYAGSEATNVWGLTEAARKTTGVDLKVLPETVIYDSELTMSLPVEMSVASGLNGLAHCIDSLWGPNADPINAVLAAEGIRALNQGLPKIVANPHSIEGRDEALYGAYLAAVSFASAGSGLHHKICHTLGGTFNLPHAQTHATVLPYVLAFNAGDAPEAERRAAAAFGTDTALEGLQRLRLSVNAPKRLSDYGFEASGIAEAVDVTLEKVPANNPRPVTRENLSRLLEAALNGEDPAVLSAVLSN”, the “soluble on expression in E. coli” value is “soluble”.

As for “MIKPYDFVPFLPYKPYDDVKAERGDGKIPIRVKTLTPVHIPSGEYTVSGDNSMIYKEFVKVNGVPVIPGTSFKGCIRSIAESISYSCLYIFDKQKKELIPEFKLEAQEKDHEKNKEQRNENGKKCIVSDMFGMPGQKSKIVFNDLRGVPNKYKLEIKGIPTSFRPNPDAEYYLENGKYKGYKFYKHGINGIQPKGNMLCEFAAENSLFEGEIIYKNLTEEQIRLLCFSLGLSGDINPKIGYGKNYFYGSIEVTSDAKWVEKAKQYKNIEKDDIKNNINLIISILNYKNAVTSVD”, the “soluble on expression in E. coli” value is recorded as “soluble”.

Take “MGSDKIHHHHHHMIKCIDVNDLKVGMYIHDLNCDWMSHPFLVNRFKVKDESEIRKIADAGIHEVYIDTRKGMDLPSARSEGEVRKQLESELREIASRERTVTRHVEAAEEFGRAQTIHHEANQIIRDILQDVRLGKQVELEQVEPQVEKLTGSILRNGGALLSLCRIKDKDNYTFQHSVSVGALMVSFCNALGMSKEVIHHAGIGGMLHDIGKMKVPDSILNKPGKLTEQEFMVMKCHVVESQKILHATRGISETAVLVAGQHHERHDGSGYPAGLKGEEISQLGQMAAIVDVYDALTSNRCYHKGMPPTDALRKIYEWSKFHFNPELVQAFMRVIGIYPVGTLVRLESGRLGVVVEQNEDNLVSPKVKVFFSTKSNTHIPPEVVDLSRRMGFGGGDRIVKHESPEKWKIDPLRFL”: the “soluble on expression in E. coli” value is given as “not soluble”.

Turning to “MGSDKIHHHHHHVIRSLWISKTGLDAQQTQMDVIANNLANVSTNGFKRSRAVFEDLLYQTLRQPGAQSSQQTQLPSGLQLGTGVRPVATEHIFTQGNLQQTGNSKDVAIQGQGFFQVLRPDGSTAYTRDGSFQTDFEGQLVTSSGYHVQPAITIPPNAQSITVGRDGIVSVTTQDSTTPVQVGNLQLATFINPAGLQSVGENLYVETASSGTPNVTNPGTDGAGLLNQGYVETSNVNVVEELVNMIQTQRAYEINSKSVQTSDQMLQRLTQL”, the “soluble on expression in E. coli” value was “not soluble”.

With “MGSSHHHHHHSSGLVPRGSHMIMLRIPTRSYCSPSKLIKGVGLSPLKKSLLSKKIKEDIHPSLPVRTRFAPSPTGFLHLGSLRTALYNYLLARNTNGQFLLRLEDTDQKRLIEGAEENIYEILKWCNINYDETPIKQSERKLIYDKYVKILLSSGKAYRCFCSKERLNDLRHSAMELKPPSMASYDRCCAHLGEEEIKSKLAQGIPFTVRFKSPERYPTFTDLLHGQINLQPQVNFNDKRYDDLILVKSDKLPTYHLANVVDDHLMGITHVIRGEEWLPSTPKHIALYNAFGWACPKFIHIPLLTTVGDKKLSKRKGDMSISDLKRQGVLPEALINFCALFGWSPPRDLASKKHECFSMEELETIFNLNGLTKGNAKVDDKKLWFFNKHFLQKRILNPSTLRELVDDIMPSLESIYNTSTISREKVAKILLNCGGSLSRINDFHDEFYYFFEKPKYNDNDAVTKFLSKNESRHIAHLLKKLGQFQEGTDAQEVESMVETMYYENGFSRKVTYQAMRFALAGCHPGAKIAAMIDILGIKESNKRLSEGLQFLQREKK”, the “soluble on expression in E. coli” value is recorded as “soluble”.

With “MGSDKIHHHHHHMFLRNMWYVAAFSADVKPGKCLARTFLNEPVVLFRTASGSLGALIDRCSHRAMPLSEGHVDGDIIRCPYHGLEFNAAGVCAHIPGQERIPAAANVRSYPVSERDGLIWIWMGEPEKADLRSIMSNPEHRDPGWSWRPYYMHVNSNWQLLVDNILDLTHVAYIHANTIGGNPQTHFNADMSVQFDGEKVTLLRKMPNSVPPKTYVAAGGFKGNVDRWQMVEYRPCGGNVLRVNAGACEVGTGAYEGRRDNGFTLLNVHGVTPETETTTHYIWTICTDAPRESGVPDMLFDQFYETICEDERALEAQQRRINDMPDMRFVGIASDGAVSRARLLLERLHENETAVTS”, the “soluble on expression in E. coli” value was “not soluble”.

As to “MKFEDLLATNKQVQFAHAATQHYKSVKTPDFLEKDPHHKKFHNADGLNQQGSSTPSTATDANAASTASTHTNTTTFKRHIVAVDDISKMNYEMIKNSPGNVITNANQDEIDISTLKTRLYKDNLYAMNDNFLQAVNDQIVTLNAAEQDQETEDPDLSDDEKIDILTKIQENLLEEYQKLSQKERKWFILKELLLDANVELDLFSNRGRKASHPIAFGAVAIPTNVNANSLAFNRTKRRKINKNGLLENIL”, the “soluble on expression in E. coli” value is “soluble”.

“MDMVAQALELSRKPHVVIATPGRLADHLRSSNTFSIKKIRFLVMDEADRLLEQGCTDFTVDLEAILAAVPARRQTLLFSATLTDTLRELQGLATNQPFFWEAQAPVSTVEQLDQRYLLVPEKVKDAYLVHLIQRFQDEHEDWSIIIFTNTCKTCQILCMMLRKFSFPTVALHSMMKQKERFAALAKFKSSIYRILIATDVASRGADQPPLPPGAWTSLRYRWSSTTTPPGSPRSTSTESAGRPVQGGRVRPSRW”: the “soluble on expression in E. coli” value was “soluble”.

In the case of “MGSDKIHHHHHHMKKKIVVLLPMKANSTRVKGKNFRDFCGKPLFRWILDSLLAVEDIDQIVINTDARDILAENGLVGTDRILIRDRKKEICGDEVSMNRVLADDVENVEADIYLMTHTTNPLLSSNTIKQAINQYNEELASASADSLFTVNKIQTRFYTAKCEPINHDPDNLIPTQDLEPWFEENSNLYLFNRESFAKTNARIGAKPSMMVSPAMECSDIDTPDDWDQAVVMTHYMLEKGFVKL”, the “soluble on expression in E. coli” value is “not soluble”.

As to “MARMNRPAPVEVTYKNMRFLITHNPTNATLNKFIEELKKYGVTTIVRVCEATYDTTLVEKEGIHVLDWPFDDGAPPSNQIVDDWLSLVKIKFREEPGCCIAVHSVAGLGRAPVLVALALIEGGMKYEDAVQFIRQKRRGAFNSKQLLYLEKYRPKMRLRFKDSNGHRNNCCIQ”, the “soluble on expression in E. coli” value was “soluble”.

Turning to “MKKRIIPIFVPHKGCPHDCIFCNQKKITGVSTDVTSEDARNIIEECLETIDKDADVEIAFFGGSFTAIDIDIQKSLLSVAKEYVEKGLVKDIRMSTRPDCIDEDILSMLKEYKTSIIELGVQSLDEKVLLDSIRGHQSEIVYKSSKMIKNSGIKLGLQMMIGLPADTEEKCIFTAKKFVELKPDCVRVYPTLVVKDTGLEKLMEQNKYNPFTLEESVNIVKKVLVLFYVNNINVIRVGLQATDDIQIGKAVLAGPYHPAFRELVEADMIKDYLEFVILQNKNIKQMLVKSNKKNISKIIGNKKTNVKYMEEKFGVLLKTQESDLDINQLEIVLDGKSLISANMRDIHRKLYDIYDL”, the “soluble on expression in E. coli” value is on record as “not soluble”.

“MGSDKIHHHHHHMSRTITIDPVTRIEGHATITIRLDDAGSVADARLHVTEFRGFEAFCVGRSIWEMPGITARICGICPISHSIASARAGDAILGVDIPPAAEQLRRIANLASLIQSHALSFFHLCAADLLLGMDHDPSRRSLWGLLESRPDVARRGIRLRQIGQQIVSNLAGERVHPSWAVPGGVREPLDAERRRKVVELLPEGIAIIRSAFELLDEIYGRHGAEVGTYGDFPSLFAGLVGEDGGLEHYDGMLRFTDSSGAVVEEVPPDHYDLAIGERSEPWSYMKFPFYRNHAGRDGGGMFRVGPLARLNLCERAGTPEADRELQTFRQLRGTGGVVTGSFHYHHARLIEILHALERIGELLDDPAILDRHVRSEAGVNRRHGVGFCEAPRGTLFHDYEVDDDGLILRLNLLIATGQNNLAMNRTILEVARSHIKGGKVSEGILNRIEHGIRAYDPCLSCATHVYGRMPFQVLLLAPDGTVVDEIAS”: the “soluble on expression in E. coli” value is given as “not soluble”.

As to “MGSDKIHHHHHHMNAPAGGLSPALTPEAVADTTAMATETHILNPRFYTTDFDELDRVDVTPVRKDWDALIAEMKADPNKAHFKKTEAWDRIDWDGMDPALRVEFIDFLVSSCTAEFSGCVLYKEMKRRGSNPDIRELFNYMARDEARHAGFINDALREAGVAVNLGFLTKAKKYTYFRPKFIYYATYLSEKIGYARYITIYRHLEANPEHRFHPIFKWFKEWCNDEFRHGEAFALLMKTDPKLTDTTVNRLWIRFFLTAVYSTMWVRDHARPEFHKALGVDIDWYDQEVYRKTSEIARQIFPVELDIDHPRWKPALRRMNEAFLRIDRGTRRGGIAGRLEKALGGAQALAAFVSLYTIPVRTHTLPENVRLEPSY”, the “soluble on expression in E. coli” value was “not soluble”.
